Patent publication US20130183378A1 (CEDARS SINAI MEDICAL CENTER, published 2013)
Each block holds one binder with its values, some of them ahead of it.

Assays:
HLA-A*0201 on T2 cells [1] = molecular target: T1, HLA-A*0201 on T2 cells (human); test: T2 cell HLA-A*0201 stabilisation; 100 µM peptide overnight, Brefeldin A, BB7.2 mAb staining, flow cytometry; MFI minus no-peptide control
T1 construct: the class I molecule on T2 cells that the added peptide stabilises; also called HLA-A2; HLA-A2 molecules
Method: The cells were then incubated with Brefeldin A (Sigma, St. Louis, Mo.) at 10 μg/ml for 1 hour, washed, incubated at 37° C. for 0, 3, or 6 hours in the presence of Brefeldin A (0.5 μg/ml), and then stained with BB7.2 mAb.

HLA-A*0201 on T2 cells [2] = molecular target: T1, HLA-A*0201 on T2 cells; test: T2 cells incubated overnight with 0, 10 or 100 µM peptide, Brefeldin A, BB7.2 mAb staining, flow cytometry; fluorescence increased in a dose-dependent manner
Method: T2 cells were incubated overnight with 0 μM, 10 μM, or 100 μM of SEQ ID NO:11. The cells were then incubated with Brefeldin A (Sigma, St. Louis, Mo.) at 10 μg/ml for 1 hour, washed, incubated at 37° C. in the presence of Brefeldin A (0.5 μg/ml), and then stained with BB7.2 mAb. Fluorescence intensity was measured by flow cytometry.

MFI (0 hour) (HLA-A*0201 on T2 cells [1]): 13.1 MFI
MFI (3 hour) (HLA-A*0201 on T2 cells [1]): 14.8 MFI
MFI (6 hour) (HLA-A*0201 on T2 cells [1]): 1.3 MFI
B1: CD133-708 (peptide)
peptide: GLLERVTRI
notes: Free peptide added to T2 cells; also called peptide 708

MFI (0 hour) (HLA-A*0201 on T2 cells [1]): 5.5 MFI
MFI (3 hour) (HLA-A*0201 on T2 cells [1]): 7.5 MFI
MFI (6 hour) (HLA-A*0201 on T2 cells [1]): 1.01 MFI
B2: CD133-117 (peptide)
peptide: LLFIILMPLV
notes: Free peptide added to T2 cells; also called peptide 117

binding result (HLA-A*0201 on T2 cells [2]): binds
B3: mouse counterpart of SEQ ID NO:1, MLLQVSHYL (SEQ ID NO:11) (peptide)
peptide: MLLQVSHYL
notes: Free peptide added to T2 cells at 0, 10 or 100 µM; also called mouse peptide

MFI (0 hour) (HLA-A*0201 on T2 cells [1]): 10.7 MFI
MFI (3 hour) (HLA-A*0201 on T2 cells [1]): 14.3 MFI
MFI (6 hour) (HLA-A*0201 on T2 cells [1]): 13.3 MFI
B4: CD133-301 (peptide)
peptide: SLNDPLCLV
notes: Free peptide added to T2 cells; also called peptide 301

MFI (0 hour) (HLA-A*0201 on T2 cells [1]): 89 MFI
MFI (3 hour) (HLA-A*0201 on T2 cells [1]): 67.6 MFI
MFI (6 hour) (HLA-A*0201 on T2 cells [1]): 34.7 MFI
B5: CD133-804 (peptide)
peptide: FLLPALIFAV
notes: Free peptide added to T2 cells; also called peptide 804

MFI (0 hour) (HLA-A*0201 on T2 cells [1]): 79.7 MFI
MFI (3 hour) (HLA-A*0201 on T2 cells [1]): 69.3 MFI
MFI (6 hour) (HLA-A*0201 on T2 cells [1]): 44.5 MFI
Binder: ILSAFSVYV (Free peptide added to T2 cells) [CD133-405]
